The results in this text go back to US20170165338A1.

The target in this assay is HLA-A*02 (human). Kind of assay: UV-exchange b2m ELISA. On the technique in general: ELISA stands for enzyme-linked immunosorbent assay.
For YLDLSHNQL, the peptide exchange yield lay in the range of 50 to 75%.

Consider GLLPLLHRA, for which the peptide exchange yield was > 75%.

SLFETAWEA returned a peptide exchange yield of 50 to 75%.

In turn, QVIEDSTGV yielded a peptide exchange yield of 20 to 49%.

Consider AMIEEVFEA, for which the peptide exchange yield fell in the range of 20 to 49%.

Turning to HLLEGSVGV, the peptide exchange yield was in the range of 50 to 75%.

For KLMPGTYTL, the peptide exchange yield was > 75%.

The molecule VLNPLITAV yielded a peptide exchange yield of 50 to 75%.

For the molecule SLATKIVEA, the peptide exchange yield lay in the range of 50 to 75%.

ILFHGVFYA: the peptide exchange yield lay in the range of 50 to 75%.

Turning to FVDPNTQEKV, the peptide exchange yield was 20 to 49%.

For the molecule YLLDPSITL, the peptide exchange yield is 50 to 75%.

The molecule GIAGSLKTV gave a peptide exchange yield of 50 to 75%.

As to AIQDEIRSV, the peptide exchange yield fell in the range of 50 to 75%.

TMDSVLVTV yielded a peptide exchange yield of 50 to 75%.

For the molecule SLADTNSLAVV, the peptide exchange yield fell in the range of 50 to 75%.

FLGPRIIGL showed a peptide exchange yield of 50 to 75%.

Turning to SISDNVWEV, the peptide exchange yield was 50 to 75%.

For the molecule ILLDLTDNRL, the peptide exchange yield was in the range of 50 to 75%.

For ALFENTPKA, the peptide exchange yield fell in the range of 20 to 49%.

SLPNGKPVSV registered a peptide exchange yield of 50 to 75%.

Take ILAKDLFEI: the peptide exchange yield was > 75%.

On to KLEENGDLYL, for which the peptide exchange yield was > 75%.

SLFSDEFKV had a peptide exchange yield of 50 to 75%.

With ALSPSYLTV, the peptide exchange yield lay within 50 to 75%.

In the case of TITETTVEV, the peptide exchange yield was in the range of 50 to 75%.

With FLVDGSYSI, the peptide exchange yield lay in the range of 50 to 75%.

For the molecule FLLATEVVTV, the peptide exchange yield is > 75%.

For ILDHEVPSL, the peptide exchange yield fell in the range of 50 to 75%.

In the case of VQLDSIEDLEV, the peptide exchange yield lay within 50 to 75%.

With ALNIATHVL, the peptide exchange yield was 50 to 75%.

LLYPEPWSV: the peptide exchange yield was > 75%.

With GIVAHIQEV, the peptide exchange yield was 50 to 75%.

For LLDSVSRL, the peptide exchange yield is < 20%.

The molecule ALQEELTEL yielded a peptide exchange yield of 50 to 75%.

As to FLLPFSTVYL, the peptide exchange yield was 50 to 75%.

In the case of ILAPFSVDL, the peptide exchange yield is 50 to 75%.

Turning to ALLERGELFV, the peptide exchange yield was in the range of 50 to 75%.

Regarding YTLDIPVLFGV, the peptide exchange yield is > 75%.

In turn, KMVGLVVAI came in with a peptide exchange yield of 50 to 75%.

Turning to YIKTELISV, the peptide exchange yield was 50 to 75%.

On to TLDEKVAEL, for which the peptide exchange yield lay in the range of 50 to 75%.

For the molecule ALFDSLRHV, the peptide exchange yield was 50 to 75%.

Molecule RLMEENWNA yielded a peptide exchange yield of 50 to 75%.

As for VLIDPQWVLTA, the peptide exchange yield was 50 to 75%.

Turning to SQFPLPLAV, the peptide exchange yield was 20 to 49%.

For ALMAMLVYV, the peptide exchange yield lay within 20 to 49%.

For LLFSRLCGA, the peptide exchange yield is > 75%.

In turn, GLSQITNQL had a peptide exchange yield of 50 to 75%.
